In the RNAGym collection of RNA variant scans (doi:10.7554/elife.80360) one finds self-cleavage data, which are given here for 38 variants.

The chains are these.
B1: Hairpin Ribozyme (parent)
chain: GUCCUCUUUCACGUGCGCGUGAAAGAGAGAAGUGAACCAGAGAAACACACGUUGUGGUAUAUUACCUGGUA

Variants of B1 are the subject of the data set. Nature of the data set: self-cleavage, relative activity (ratio to wild type); higher = more cleavage; co-transcriptional.
As for GUCCUCUUUCACGUGCGCGUGAAAGACAGAAGUGAACCAGAGAAACACACGUUGUGGUAUAUUCCCUGGUA [G27C A64C], the self-cleavage is 0.128. On to GUCCUCUUUCACGUGCGCGUGAAAGAGAGAAGUGGACCAGAGAAACACACGUUGUGGUAUAUUACCUGGUG [A35G A71G], for which the self-cleavage is 0.542. GUCCUCUUUCACGUGCGCGUGAAAGAGAGAAGUGAACCAUAGAAACAGACGUUGUGGUAUAUUACCUGGUA [G40U C48G]: the self-cleavage was determined as 0.189. Turning to GUCCUCUUUCACGUGCGAGUGAAAGAGAGAAGUGAACCAGAGAAAUACACGUUGUGGUAUAUUACCUGGUA [C18A C46U], the self-cleavage was found to be 0.1. For the variant GUCCUCUUUCACGUGCGCGUGAAAGAGAGAAGUGACCCAGAGAAACACACGUUGUGGUAUAUUACCUGGUA [A36C], the self-cleavage was 0.659.

As for GUCCUCUUGCACGUGCGCGUGAAAGAGAGAAGUGAACCAGAGAAACACACGUUGUGGUAUAUUACCUGAUA [U9G G69A], the self-cleavage stood at 0.223.

Consider GUCCUCUUUCACGUGCGCGUGAAAAAGAGAAGUGAACCAGAGAAACUCACGUUGUGGUAUAUUACCUGGUA [G25A A47U], for which the self-cleavage came out at 0.108. With GUACUCUUUCACGUGCGCGUGAAAGAGAGAAGUGAACCAGAGAAACACACGUUGUGUUAUAUUACCUGGUA [C3A G57U], the self-cleavage is 0.153. In the case of GUCCUCUUUCACGUGCGGGUGAAAGAGAGAAGUGAACCAGAGAAACACACGUUGUGUUAUAUUACCUGGUA [C18G G57U], the self-cleavage was 0.243.

Take GUCCUCUUUCACGUGCGCGUGAAAGAGAGAAGUGAACCAGAGAAACACUCGUUGUGUUAUAUUACCUGGUA [A49U G57U]: the self-cleavage amounted to 0.228. GUCCUCUUUCACGUGCGCGUGCAAGAGAGAAGUGAACCAGAGAAACACACGUUAUGGUAUAUUACCUGGUA [A22C G54A]: the self-cleavage turned out to be 0.587.

Regarding GUCCUCUUUCACGUGCGCGUGAAAGAGAGAAGCGAACCAGAGAAACACACGUUGUGGUAUAUUACCUGGCA [U33C U70C], the self-cleavage was determined as 0.0962.

As to GUCCUCUUUCACGUGUGCGUGAAAGAGAGUAGUGAACCAGAGAAACACACGUUGUGGUAUAUUACCUGGUA [C16U A30U], the self-cleavage came to 0.2. In the case of GUCCUCUUUCACGUGCGCGUGAAAGAGAGAAGUGAACCAGAGAAAAACACGUUGUGGUACAUUACCUGGUA [C46A U60C], the self-cleavage was determined as 0.277. GUCCUCUUUCACGUGCGCGUGACAGAGAGAAGUGAACCAGUGAAACACACGUUGUGGUAUAUUACCUGGUA [A23C A41U]: the self-cleavage worked out at 0.911. Then GUCCUCUGUCACGUGCGCGUGAAAGAGAGACGUGAACCAGAGAAACACACGUUGUGGUAUAUUACCUGGUA [U8G A31C], with 0.13. For the variant GUCCUCUUACACGUGCGCGUGAAAGAGAGAAGUGAACCAGAGUAACACACGUUGUGGUAUAUUACCUGGUA [U9A A43U], the self-cleavage amounted to 0.105. Take GUCCGCUUUCACGUGCGCGUGAAAGAGAGAAGUGAACCAGAGCAACACACGUUGUGGUAUAUUACCUGGUA [U5G A43C]: the self-cleavage turned out to be 0.269. In the case of GUCCUCUUUCACGUGCGCGUGAAAGAGAGAAGUGAACAAGAGAAACACACGUUGUGUUAUAUUACCUGGUA [C38A G57U] it was 0.0968; in that of GUCCUCUUUCACGUGCGCGUGAAAGAGUGAAGUGAACCAGAGAAACACACGUUGUGGUAUAUUACGUGGUA [A28U C66G], 0.302; in that of GUCCUCUUUCACGUGCGCGUGAAAGAGAGAAGUUAACCAGAGAAACACACGUUGUGGUAUAGUACCUGGUA [G34U U62G], 0.139. On to GUCCUCUUUCACGUGCGCGUGAAAGAGAGAAGUGAAGCAGAGAAACACACGUUGUGGUAUAUUAUCUGGUA [C37G C65U], for which the self-cleavage came to 0.334. With GUCCUCUUUCACAUGCGCGUGAAAGAGAGAAGUGAACCAGAGAAACACGCGUUGUGGUAUAUUACCUGGUA [G13A A49G], the self-cleavage was found to be 0.5. As to GUCCUCUUUCACGUGCGCGUGUAAGAGAGAAGUGAAGCAGAGAAACACACGUUGUGGUAUAUUACCUGGUA [A22U C37G], the self-cleavage was 0.339. GUCCUCUUUCACGAGCGCGUGAAAGAUAGAAGUGAACCAGAGAAACACACGUUGUGGUAUAUUACCUGGUA [U14A G27U]: the self-cleavage was 0.192. Take GUCCUCUUUCACGUGCGCGUGAAAGGGAGAAUUGAACCAGAGAAACACACGUUGUGGUAUAUUACCUGGUA [A26G G32U]: the self-cleavage stood at 0.121. Regarding GUCCUCUUGCACGUGCGCGUGAAAGAGAGAAGUGAACCAGAGAAAGACACGUUGUGGUAUAUUACCUGGUA [U9G C46G], the self-cleavage worked out at 0.161. On to GUCGUCUUUCACGUGCGCGUGAAAGAGAGAAGUUAACCAGAGAAACACACGUUGUGGUAUAUUACCUGGUA [C4G G34U], for which the self-cleavage is 0.977. Consider GUCCUCUUUCACGUGCGCGUGAAAGAGCGAAGUGAACCAGAGAAACACACGUUGGGGUAUAUUACCUGGUA [A28C U55G], for which the self-cleavage worked out at 0.217. GUCCUCUUUCACGUGCGCGUGUAAGAGAGAAGUGAACCAGAGAAACACACGUUGUGGUAUAUUACCUGAUA [A22U G69A]: the self-cleavage worked out at 0.42. Turning to GUCCUCUUUAGCGUGCGCGUGAAAGAGAGAAGUGAACCAGAGAAACACACGUUGUGGUAUAUUACCUGGUA [C10A A11G], the self-cleavage was found to be 0.644. Take GUCCUCUUUCACGUGCGCGUGAACGAGAGAAGUGAACCAGAGAAUCACACGUUGUGGUAUAUUACCUGGUA [A24C A45U]: the self-cleavage amounted to 0.0791. Then GUCCUCUUUCACGAGCGCGUGAAAGAGAGAAGUGAACCAGAGAAACACACCUUGUGGUAUAUUACCUGGUA [U14A G51C], with 0.89; and GUCCUCUUUCACGUGCGCGUGAAAGAGAGAAGUGAACCAGAGGUACACACGUUGUGGUAUAUUACCUGGUA [A43G A44U], with 0.207. Take GUCCUCUUUCACGUGCGCGUGAAAGAGAGAAGUGAACCAGAGAAACAGACGUUGUGGUAUUUUACCUGGUA [C48G A61U]: the self-cleavage turned out to be 0.0929.

Consider GUCCUCUUUCACGUGCGCGUGAAAGAGAGAACUGAACCAUAGAAACACACGUUGUGGUAUAUUACCUGGUA [G32C G40U], for which the self-cleavage was 0.086.

As for GUCCUCUUUCACGUUCGCGUGAAAGAGAGAAGUGAACCAGAGAAACACCCGUUGUGGUAUAUUACCUGGUA [G15U A49C], the self-cleavage came to 0.0683. As for GUCCUCUUUCACGUGCGCGUGAAAGAGAGAAGUGAUCCAGAGAAACACACGUUGUGGUAUAUUACCUGCUA [A36U G69C], the self-cleavage was found to be 0.127.
